The values below come from patent US20180194851A1 (Pfizer, published 2018).

Test [1] concerns the target T1, Recombinant human 4-1BB/Fc Chimera (R&D Systems #838-4B) (human, UniProt Q07011 24-186).
T1 construct: Bought protein; also called Human 4-1BB IgG1Fc chimera; not shown: Factor Xa-cleavable junction, human IgG1 Fc and 6xHistidine tag of the bought chimera
The test is described as follows: ELISA on directly coated human 4-1BB/Fc. (ELISA stands for enzyme-linked immunosorbent assay.)

For test [2], the target named is T2, human 4-1BB on cells (human, UniProt Q07011 18-255).
T2 construct: Expressed on stably transfected HEK293/HEK293T cells, transduced 300-19 cells or PHA stimulated human PBMC; also called h41BB; hu4-1BB
The test is described as follows: FACS on HEK293 cells expressing human 4-1BB.

Test [3] has as its target T3, human 4-1BB (recombinant antigen, construct not stated) (human, UniProt Q07011 24-186).
T3 construct: It may be the 4-1BB/Fc chimera; also called CD137/HUMAN 4-1BB; unlabeled human 4-1BB
Kind of test: SPR (Biacore 3000), Fab analyte on amine-coupled human 4-1BB. (In general: Surface plasmon resonance follows binding to a sensor surface in real time, without labels.)

Test [4] has as its target T3, human 4-1BB (recombinant antigen, …). The test is described as follows: solution equilibrium titration (SET), MSD electrochemiluminescence.
For test [5], the target named is T2, human 4-1BB on cells. The test is described as follows: FACS on transfected cells.
Test [6] concerns the target T4, Hu41BB N&E.5 (human, UniProt Q07011 18-255).
T4 construct: Human-to-dog mutant of the human 4-1BB extracellular domain, expressed on transduced 300-19 cells; also called 4-1BB Mutant N&E.5
T4 chain: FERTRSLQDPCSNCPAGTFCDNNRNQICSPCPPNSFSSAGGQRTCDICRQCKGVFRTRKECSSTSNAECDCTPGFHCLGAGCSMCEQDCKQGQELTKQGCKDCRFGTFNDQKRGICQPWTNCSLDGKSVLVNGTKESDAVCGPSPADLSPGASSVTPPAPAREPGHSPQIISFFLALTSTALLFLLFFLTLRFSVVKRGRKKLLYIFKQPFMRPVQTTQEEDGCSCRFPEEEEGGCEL
Kind of test: FACS dose response on 300-19 cell pools.

The next test deals with T5, CD40 on 300.19 cells (UniProt P25942 21-277, limits assumed).
T5 construct: whole, on cells; also called TNFRSF5; 300.19 CD40
The test is described as follows: FACS on 300.19 cells expressing CD40.

The target in another test is T6, OX-40 on 300.19 cells (UniProt P43489 29-277, limits assumed).
T6 construct: whole, on cells; also called CD134; TNFRSF4
T6 sequence (looked up): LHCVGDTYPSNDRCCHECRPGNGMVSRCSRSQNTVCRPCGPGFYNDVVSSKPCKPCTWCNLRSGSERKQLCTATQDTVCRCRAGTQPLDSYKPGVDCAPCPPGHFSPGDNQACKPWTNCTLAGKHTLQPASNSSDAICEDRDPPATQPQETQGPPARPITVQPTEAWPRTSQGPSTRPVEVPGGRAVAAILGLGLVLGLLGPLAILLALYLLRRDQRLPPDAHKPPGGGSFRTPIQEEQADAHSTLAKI
The test is described as follows: FACS on 300.19 cells expressing OX-40.

Test [7] deals with T1, Recombinant human 4-1BB/Fc Chimera (R&D …). Kind of test: ELISA on coated human 4-1BB IgG1Fc chimera.
Test [8] shares this target. Kind of test: ELISA on directly coated human 4-1BB/Fc, IgG1.
Test [9] has as its target T2, human 4-1BB on cells. Kind of test: FACS on HEK293T cells expressing human 4-1BB, IgG1.
The next test concerns the target T7, Hu41BB N&E (human, UniProt Q07011 18-255).
T7 construct: Human-to-dog mutant of the human 4-1BB extracellular domain, expressed on transduced 300-19 cells
T7 chain: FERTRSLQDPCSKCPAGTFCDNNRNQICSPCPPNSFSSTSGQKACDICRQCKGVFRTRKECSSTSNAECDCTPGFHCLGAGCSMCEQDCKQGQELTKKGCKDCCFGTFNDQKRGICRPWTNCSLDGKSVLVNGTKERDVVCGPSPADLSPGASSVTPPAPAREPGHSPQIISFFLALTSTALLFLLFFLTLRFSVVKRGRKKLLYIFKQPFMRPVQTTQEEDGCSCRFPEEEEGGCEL
Kind of test: FACS, 100 nM antibody, transduced 300-19 cell pools. (In flow cytometry, cells or beads pass a laser one at a time.)

The target of another test is T8, Hu41BB N&E.1 (human, UniProt Q07011 18-255).
T8 construct: Human-to-dog mutant of the human 4-1BB extracellular domain, expressed on transduced 300-19 cells
T8 chain: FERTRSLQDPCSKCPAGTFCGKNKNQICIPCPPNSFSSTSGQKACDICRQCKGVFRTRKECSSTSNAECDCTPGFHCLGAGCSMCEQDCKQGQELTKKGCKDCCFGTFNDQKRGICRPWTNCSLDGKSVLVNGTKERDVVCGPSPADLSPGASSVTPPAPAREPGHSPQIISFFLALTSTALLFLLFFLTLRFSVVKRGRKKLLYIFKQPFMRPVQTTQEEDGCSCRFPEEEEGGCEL
The test is described as above.

The target of a further test is T9, Hu41BB N&E.2 (human, UniProt Q07011 18-255).
T9 construct: Human-to-dog mutant of the human 4-1BB extracellular domain, expressed on transduced 300-19 cells
T9 chain: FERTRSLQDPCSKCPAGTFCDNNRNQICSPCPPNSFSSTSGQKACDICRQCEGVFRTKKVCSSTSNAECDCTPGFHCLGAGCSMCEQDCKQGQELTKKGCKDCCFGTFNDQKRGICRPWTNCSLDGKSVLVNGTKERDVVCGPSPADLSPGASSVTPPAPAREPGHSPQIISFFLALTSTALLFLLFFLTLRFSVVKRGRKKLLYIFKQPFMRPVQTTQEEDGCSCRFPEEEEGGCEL
The test is described as above.

The next test concerns the target T10, Hu41BB N&E.3 (human, UniProt Q07011 18-255).
T10 construct: Human-to-dog mutant of the human 4-1BB extracellular domain, expressed on transduced 300-19 cells
T10 chain: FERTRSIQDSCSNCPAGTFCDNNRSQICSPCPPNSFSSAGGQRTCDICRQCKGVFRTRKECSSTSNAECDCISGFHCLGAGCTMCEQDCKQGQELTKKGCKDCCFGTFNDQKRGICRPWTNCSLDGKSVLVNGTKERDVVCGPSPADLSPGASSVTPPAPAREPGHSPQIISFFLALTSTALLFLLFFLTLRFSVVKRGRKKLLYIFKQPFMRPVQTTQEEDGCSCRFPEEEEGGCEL
Described as above.

The next test concerns the target T11, Hu41BB N&E.4 (human, UniProt Q07011 18-255).
T11 construct: Human-to-dog mutant of the human 4-1BB extracellular domain, expressed on transduced 300-19 cells
T11 chain: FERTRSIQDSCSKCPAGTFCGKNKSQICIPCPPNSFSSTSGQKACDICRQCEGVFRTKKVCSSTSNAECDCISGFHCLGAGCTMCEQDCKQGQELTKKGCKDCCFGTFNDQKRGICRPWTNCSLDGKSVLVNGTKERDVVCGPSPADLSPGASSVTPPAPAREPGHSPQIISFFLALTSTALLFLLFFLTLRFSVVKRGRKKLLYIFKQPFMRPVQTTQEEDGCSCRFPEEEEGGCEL
Described as above.

The target of a further test is T12, Hu41BB N&E.6 (human, UniProt Q07011 18-255).
T12 construct: Human-to-dog mutant of the human 4-1BB extracellular domain, expressed on transduced 300-19 cells
T12 chain: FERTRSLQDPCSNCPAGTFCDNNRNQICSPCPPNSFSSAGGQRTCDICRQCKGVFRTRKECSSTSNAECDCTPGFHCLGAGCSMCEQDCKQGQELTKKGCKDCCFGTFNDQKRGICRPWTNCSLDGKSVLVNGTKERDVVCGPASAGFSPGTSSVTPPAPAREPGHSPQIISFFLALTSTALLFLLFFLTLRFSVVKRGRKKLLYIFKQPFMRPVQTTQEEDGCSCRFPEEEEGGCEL
The test is described as above.

Test [10] has as its target T13, human 4-1BB extracellular portion, amino acids 24-186 (Fc cleaved off with Factor Xa) (human, UniProt Q07011 24-186).
T13 construct: Made from the R&D Systems 4-1BB/Fc chimera by Factor Xa cleavage; also called recombinant human 4-1BB; the 4-1BB
The test is described as follows: SPR (Biacore 3000), antibody amine-coupled, 4-1BB 24-186 as analyte, 25 C.

Test [11] deals with T1, Recombinant human 4-1BB/Fc Chimera (R&D …). Kind of test: ligand competition ELISA, 4-1BB_IgG1Fc to plate-bound 4-1BBL (competitor 4-1BBL).
Test [12] addresses T2, human 4-1BB on cells. The test is described as follows: FACS dose response, Alexa Fluor 647 labelled antibody on 300-19 cells expressing human 4-1BB.
Test [13] deals with T4, Hu41BB N&E.5. The test is described as follows: FACS dose response, Alexa Fluor 647 labelled antibody on 300-19 cells expressing mutant N&E.5.

One may read the EC50 as the concentration giving half of the maximal effect. By Kd is commonly meant a measure of binding affinity in units of concentration. In general, koff refers to a measure of how fast the partners let go of each other. Lower therefore signals a long-lived complex. As a reminder, the kon is the second-order rate constant of association. Higher therefore signals faster complex formation. A word on the IC50: it is the concentration needed to halve the response being measured.

T5 sequence (P25942 21-277 limits assumed): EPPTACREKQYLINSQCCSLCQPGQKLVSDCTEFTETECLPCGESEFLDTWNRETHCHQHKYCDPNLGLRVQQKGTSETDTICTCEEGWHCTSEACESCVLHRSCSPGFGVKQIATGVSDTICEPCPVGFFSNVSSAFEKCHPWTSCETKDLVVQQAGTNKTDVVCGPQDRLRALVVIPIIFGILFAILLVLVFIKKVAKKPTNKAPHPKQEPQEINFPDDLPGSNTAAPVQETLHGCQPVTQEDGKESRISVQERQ

B1: Fab-7480 (Fab, V domains shown)
VH: QVQLVQSGAEVKKPGESLKISCKGSGYSFSTYWISWVRQMPGKGLEWMGKIYPGDSYTNYSPSFQGQVTISADKSISTAYLQWSSLKASDTAMYYCARGYGIFDYWGQGTLVTVSS
VL: DIELTQPPSVSVAPGQTARISCSGDNIGDQYAHWYQQKPGQAPVVVIYQDKNRPSGIPERFSGSNSGNTATLTISGTQAEDEADYYCATYTGFGSLAVFGGGTKLTVL
Consider B1, for which the EC50 stood at 0.7 nM in [1] and 0.9 nM in the test with human 4-1BB on cells [2]. Besides, the figures for the Kd in test [3] and in test [4] were 0.5 nM and 0.046 nM, respectively.

B2: MOR-7480 (IgG1) (antibody, V domains shown)
VH: QVQLVQSGAEVKKPGESLKISCKGSGYSFSTYWISWVRQMPGKGLEWMGKIYPGDSYTNYSPSFQGQVTISADKSISTAYLQWSSLKASDTAMYYCARGYGIFDYWGQGTLVTVSS
VL: DIELTQPPSVSVAPGQTARISCSGDNIGDQYAHWYQQKPGQAPVVVIYQDKNRPSGIPERFSGSNSGNTATLTISGTQAEDEADYYCATYTGFGSLAVFGGGTKLTVL
notes: Human IgG1 format, lambda light chain
B2: the “fold selectivity for 4-1BB versus OX-40 and CD40” value with human 4-1BB on cells [5] is no less than 100 fold. In addition, in the test with Hu41BB N&E.5 [6], the “fold decrease in binding against human 4-1BB” value was greater than 5 fold. The binding result with CD40 on 300.19 cells is “no binding (tested: 1000 nM)”; with OX-40 on 300.19 cells, “no binding (tested: 1000 nM)”; with Hu41BB N&E it was “binds”; with Hu41BB N&E.1, “binds”; with Hu41BB N&E.2, “binds”; with Hu41BB N&E.3 it was “binds”. Also, the binding result with Hu41BB N&E.4 and with Hu41BB N&E.6 was “binds” in each case. The EC50 in test [7] came out at 0.076 nM; in test [8] it was 0.7 nM; in the test with human 4-1BB on cells [9], 0.6 nM; with human 4-1BB on cells [12], 1.68 nM; in the test with Hu41BB N&E.5 [13], 12.3 nM. The Kd in test [10] stood at 0.42 nM. Further, in test [10], the koff came to 0.00015 s⁻¹. For the same molecule, the kon in test [10] came to 360000 M⁻¹ s⁻¹. The same molecule registered a t1/2 in test [10] of 1.37 h. Besides, in test [11], the “% max inhibition” value was 96%. Moreover, the IC50 in test [11] is 0.122 nM.
